Data from doi:10.1101/2021.10.18.464377.

Key:
[1] = molecular target: Synaptotagmin 2 wild type expressed in HEK 293 or PC12 cells (UniProt P29101); test: immunostaining of cells or tissue
[2] = molecular target: Synaptotagmin 1 wild type expressed in HEK 293 cells (UniProt P21707); test: immunostaining of cells or tissue
UniProt P21707, sequence (P21707 whole entry): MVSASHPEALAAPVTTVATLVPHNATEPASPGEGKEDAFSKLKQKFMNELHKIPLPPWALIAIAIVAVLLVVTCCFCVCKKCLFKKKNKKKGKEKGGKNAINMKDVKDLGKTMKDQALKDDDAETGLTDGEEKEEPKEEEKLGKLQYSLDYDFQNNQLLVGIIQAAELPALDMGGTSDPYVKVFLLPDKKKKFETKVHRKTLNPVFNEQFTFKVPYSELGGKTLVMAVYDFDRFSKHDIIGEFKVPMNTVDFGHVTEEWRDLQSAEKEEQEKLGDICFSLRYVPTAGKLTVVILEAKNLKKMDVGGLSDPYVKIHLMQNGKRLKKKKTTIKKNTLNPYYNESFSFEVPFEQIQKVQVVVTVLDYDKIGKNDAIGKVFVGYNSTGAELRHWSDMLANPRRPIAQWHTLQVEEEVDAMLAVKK

UniProt P29101, sequence (P29101 whole entry): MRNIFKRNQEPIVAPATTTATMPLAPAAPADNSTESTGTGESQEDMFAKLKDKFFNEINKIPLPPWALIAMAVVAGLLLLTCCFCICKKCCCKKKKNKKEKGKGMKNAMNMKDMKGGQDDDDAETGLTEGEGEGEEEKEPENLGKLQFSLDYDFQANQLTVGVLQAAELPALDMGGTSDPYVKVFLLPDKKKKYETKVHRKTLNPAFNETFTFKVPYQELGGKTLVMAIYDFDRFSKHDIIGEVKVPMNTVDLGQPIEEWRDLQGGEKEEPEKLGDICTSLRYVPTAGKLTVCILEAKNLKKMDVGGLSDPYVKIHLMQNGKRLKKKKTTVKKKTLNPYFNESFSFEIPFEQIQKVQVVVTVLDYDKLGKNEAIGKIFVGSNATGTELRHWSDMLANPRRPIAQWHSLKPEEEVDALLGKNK

Question: Which results are given for “Botulinum neurotoxin serotype B (B1 Okra strain) with non-toxic accessory proteins (complex)”?
Answer: normalised BoNT/B immunoreactivity (IR, relative to WT) [1]: 1; normalised BoNT/B immunoreactivity (IR, relative to WT) [2]: 1
